The target in assay [1] is T1, EGFR on MDA-MB-468 cells (UniProt P00533 25-1210, limits assumed).
T1 construct: whole, on cells; also called MDA-MB-468 tumor cell line (EGFR+, HER2-)
In words: FACS on MDA-MB-468 cells (EGFR+, HER2-).

Assay [2] deals with T2, human HER2/ErbB2 on cells (human, UniProt P04626 23-1255).
T2 construct: whole, on cells; also called hHER2/ErbB2; wild type HER2/ErbB
In words: flow cytometry on CHO cells expressing human HER2. The method, then: CHO cells (Chinese Hamster Ovary cells) stably transfected with hHER2 expression vector and selected in G418 containing medium. G418 resistant clones were pooled and split 24 hours prior to the setup of the assay to obtain 70% confluent monolayer. Routinely, CHO cell line was maintained within 20 passages. Cells were lifted with cell dissociation buffer (Gibco catalog #13151-014), counted, washed and adjusted to 1×10⁶ cells/ml and one ml of cells were then added to each tube (12×75 mm tube Falcon catalog #352054). Cells were pelleted and supernatant removed by centrifugation at 1200 rpm for 5 min and 100 μl of diluted antibodies were then added to the cell pellet. Purified Fabs were tested at a starting concentration of either 210 or 60 μg/ml with 1:3 dilutions in FACS buffer, down to 0.001 μg/ml. FACS buffer used throughout the assay was PBS (without Ca^{+±}/Mg^{+±}) containing 1% BSA (Sigma catalog #A-7906) and 0.1% Sodium Azide (Sigma catalog #S2002). Samples were allowed to incubate on ice for 1 hour and 15 minutes then were washed with 2 ml FACS buffer and centrifuged at 1200 rpm for 5 minutes at 4° C. The supernatant was aspirated and 100 μl of the secondary detection antibody was added to each corresponding tube in FACS buffer. Samples were then incubated for 30 minutes on ice, in the dark. Cells were washed as described above, then, re-suspended in 250 μl FACS buffer per tube/sample.
A full titration was performed on MCF7 and SKBR3 tumor cell lines, and human Her2-CHO and murine Her2-CHO cell lines in order to calculate an approximate EC50 (data not shown, see summary in Table 1).

The target in assay [3] is T3, Her2-Fc D1 (MR066).
T3 construct: also called ErbB2-Fc Domain 1
T3 chain: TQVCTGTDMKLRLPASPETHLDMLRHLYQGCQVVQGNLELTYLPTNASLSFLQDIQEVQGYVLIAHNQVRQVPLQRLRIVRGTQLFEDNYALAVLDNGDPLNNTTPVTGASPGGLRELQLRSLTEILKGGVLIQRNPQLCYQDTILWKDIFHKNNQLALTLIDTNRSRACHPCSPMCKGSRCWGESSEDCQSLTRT
The assay can be described thus: ELISA, HER2-Fc construct captured by anti-huFc, Fab from 1 ug/ml in 5-fold steps, HRP anti-kappa/lambda. The method, then:
(§1) Nunc Maxisorp ELISA plates were coated with 5 ug/ml rabbit pAbs anti-human Fc gamma in PBS overnight at 4 degrees. Plates were washed one time with PBST (PBS, 0.05% tween 20) and blocked with 1% BSA in PBS for one hour at room temperature. Plates were washed one time with PBST and incubated with 1 ug/ml HER2-Fc fusion protein for one hour. Plates were washed three times with PBST and dilutions of Fab (four 5-fold serial dilutions, starting at 1 ug/ml) in block were added and incubated for ninety minutes. Plates were washed three times with PBST and incubated with 1:2,000 HRP-labelled goat anti-human kappa (Southern Biotech cat#2060-05) and HRP-labelled goat anti-human lambda (Southern Biotech cat#2070-05) in block for one hour at room temperature. Plates were washed three times with PBST, developed with TMB solution for 5 minutes, and stopped with equal volume 1 N H₂SO₄. Absorbance values were read at 450 nm.

Assay [4] concerns the target T4, Her2-Fc D1-D2 (MR067).
T4 construct: also called ErbB2-Fc Domains 1-2
T4 chain: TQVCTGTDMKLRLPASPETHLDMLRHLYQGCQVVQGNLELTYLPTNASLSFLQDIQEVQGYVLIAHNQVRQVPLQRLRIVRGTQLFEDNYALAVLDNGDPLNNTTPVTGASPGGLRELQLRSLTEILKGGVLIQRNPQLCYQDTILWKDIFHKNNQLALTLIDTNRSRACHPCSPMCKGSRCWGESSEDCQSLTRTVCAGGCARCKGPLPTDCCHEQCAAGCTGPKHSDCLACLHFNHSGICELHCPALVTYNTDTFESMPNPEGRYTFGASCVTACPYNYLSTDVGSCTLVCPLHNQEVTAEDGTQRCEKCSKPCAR
Described as above. The method, then: as §1

Assay [5] has as its target T5, Her2-Fc D1-D2-D3 (MR068).
T5 construct: also called ErbB2-Fc Domains 1-3
The assay is described as above. The method, then:
as §1

Assay [6] addresses T6, Her2-Fc D1-D2-D3-D4 (MR069).
T6 construct: made in house, kept apart from the R&D Systems HER2-Fc; also called ErbB2-Fc full length ECD
Described as above. The method, then:
as §1

Assay [7] has as its target T7, human HER2-Fc (human, UniProt P04626 23-652).
T7 construct: Bought from R&D Systems: homodimeric fusion of the HER2 extracellular domain and human IgG1 Fc; also called human ErbB2-Fc; rhErbB2-Fc; not shown: Fc fragment of human IgG1
The assay can be described thus: ELISA on coated huHER2-Fc, HRP anti-human kappa; the number is C of the printed 4-P fit y=(A-D)/(1+(x/C)^B)+D (A -0.004, B 0.92, D 0.931, R^2 1); x axis: Fab equivalent concentration; last point about 13000 ng/ml at OD about 0.73, upper plateau not reached by the points.

In assay [8] the target is T8, murine HER2-Fc (mouse; human, UniProt P70424 23-653).
T8 construct: extracellular domain; Bought from R&D Systems; also called murine ErbB2-Fc; not shown: Fc fragment of human IgG1
In words: ELISA on coated muHER2-Fc, HRP anti-human kappa; the number is C of the printed 4-P fit y=(A-D)/(1+(x/C)^B)+D (A 0.002, B 0.792, D 0.827, R^2 0.999); x axis: Fab equivalent concentration; C lies beyond the last point (about 14000 ng/ml, OD about 0.28): extrapolated by the fit.

For assay [9], the target named is T7, human HER2-Fc. In words: ELISA on coated HER2-Fc. The method, then: Human and murine ErbB2-Fc were obtained from R&D Systems. Wells of 96-well plates were coated with 2 ug/ml or 0.2 ug/ml of human or murine HER2-Fc by incubation overnight at 4-8° C. with either of these six proteins (80 ul/well of a 0.2 or 2 ug/ml solution in PBS). Wells were emptied, filled completely with a solution of PBS with 1% BSA (blocking buffer) and incubated at room temperature for 1 hour. Wells were emptied, washed twice PBS containing 0.05% Tween 20 (PBST) and filled with the samples (80 ul/well of 3× dilution series of the standard and supernatants in blocking buffer) prepared in another 96-well plate. After a 2-hour incubation at room temperature, the wells were emptied, washed three times with PBST and filled with a solution of HRP-conjugated goat pAbs anti-human kappa chain (80 ul/well of a 2000-fold dilution in blocking buffer). After 1-hour incubation, the wells were emptied and filled with a solution of HRP substrate prepared freshly. The color was left to develop for 3 minutes and was stopped by addition of an equal volume of 1N H₂SO₄. Absorbance was measured at 450 nm using a Plate Reader (SpectraMax, Molecular Devices). The data was processed and graphs were created using SoftMax Pro software.

The target in assay [10] is T2, human HER2/ErbB2 on cells. In words: FACS on HER2-expressing cells.
Assay [11] addresses T7, human HER2-Fc. In words: ELISA on coated huHER2-Fc, HRP anti-human kappa; the number is C of the printed 4-P fit (A 0.008, B 1.216, D 0.834, R^2 1); x axis: Fab equivalent concentration.
The target of assay [12] is T8, murine HER2-Fc. The assay can be described thus: ELISA on coated muHER2-Fc, HRP anti-human kappa; the number is C of the printed 4-P fit (A -0.002, B 0.6, D 1.035, R^2 1); x axis: Fab equivalent concentration; C lies beyond the last point (about 120 ng/ml, OD about 0.4): extrapolated by the fit.

B1: BIIB71F10 Fab (Fab, V domains shown)
VH: EVQLLESGGGLVQPGGSLRLSCAASGFTFSSYGMVWVRQAPGKGLEWVSSISSSGGLTWYADSVKGRFTISRDNSKNTLYLQMNSLRAEDTAVYYCASPPGIAVARDYWGQGTLVTVSS
VL: DIQMTQSPSSLSASVGDRVTITCRASQGISNYLAWYQQKPGKVPKLLIYAASTLQSGVPSRFSGSGSGTDFTLTISSLQPEDVATYYCQKYNSALLTFGGGTKVEIK
notes: Soluble human Fab; also called Fab 71F10
Consider B1, for which the binding result in [1] is reported as “no binding”; in assay [3], “no binding (tested: 1 ug/ml)”; in [4], “binds”; in assay [5], “binds”; in [6] it was “binds”. Also, the EC50 was 60 nM in assay [2], 3.43 µg/mL in assay [7] and 31.8 µg/mL in assay [8].

B2: BIIB71F10 Mab (BIIB71F10-134, 71F10 IgG) (antibody, V domains shown)
VH: B1 VH
VL: DIQMTQSPSSLSASVGDRVTITCRASQGISNYLAWYQQKPGKVPKLLIYAASTLQSGVPSRFSGSGSGTDFTLTISSLQPEDVATYYCQKYNSALLTFGGGTKVEIKR
notes: IgG1; also called BIIB71-F10 antibody
Regarding B2, the EC50 in [9] was 0.07 nM; in assay [10], 2 nM; in assay [11], 6.34 ng/mL; in assay [12], 0.248 µg/mL.
